Results from US20240361320A1.

Target: SARS-CoV-2 3CL^pro enzyme (Recombinant derived from Escherichia coli, ab277614, ABCAM; SEQ ID NO:2) (SARS-CoV-2) (UniProt P0DTC1)
Assay: cell-based or functional assay

Substance: myoglobin antibody (Monoclonal rabbit-derived, ab77232, ABCAM; binding to SEQ ID NO:5)
- oxidation peak shift (ΔEPeak) of pBQ: 0 mV
